Values of other authors, collected in article PMC8746970, “Determination of the Peptide AWRK6 in Rat Plasma by Liquid Chromatography-Tandem Mass Spectrometry (LC-MS/MS) and Its Application to Pharmacokinetics” (Molecules, 2021).

Settings: in vivo; cited from earlier work

glucagon-like peptide-1 [GLP-1]
elimination half-life: ~ 2 min
